{"source": "patent US20240218070A1", "about": "(MERUS N V, published 2024)", "binders": {"B1": {"name": "anti-human FAP bivalent monospecific IgG comprising heavy chain variable region SEQ ID NO: 19 (antibody, V domains shown)", "VH": "EVQLVESGGGLVKPGGSLRLSCAASGFPFNYAWMSWVRQAPGKGLEWVGRIKPKTSGGATDYAAPVKDRFTISRDDSRNTLYLQMNSLKTEDTAVYYCSAREDIWNFFFDLWGQGTLVTVSS", "VL": "not shown", "notes": "IgG1 format, common light chain VK1-39/JK1"}, "B2": {"name": "anti-human FAP bivalent monospecific IgG comprising heavy chain variable region SEQ ID NO: 15 (antibody, V domains shown)", "VH": "QLQLQESGPGLVKPSETLSLTCTVSGGSISSSSYFWAWIRQPPGKGLEFIGNIYYSGSTYYNPSLKSRVTISVDTSKNQFSLKLSSVTAADTAVYYCARPSYYGSGNYYFAFWGQGTLVTVSS", "VL": "not shown", "notes": "as for B1"}, "B3": {"name": "anti-human FAP bivalent monospecific IgG comprising heavy chain variable region SEQ ID NO: 69 (antibody, V domains shown)", "VH": "EVQLVETGGGLIQPGGSLRLSCAASGFTVSSNYMSWVRQAPGKGLEWVSVIYSGGSTYYADSVKGRFTISRDNSKNTLYLQMNSLRAEDTAVYYCARGPTDAYPYLDYLWGQGTLVTVSS", "VL": "not shown", "notes": "IgG1 format, common light chain VK1-39/JK1; also called human/mouse cross-reactive FAP IgG"}, "B4": {"name": "anti-human FAP bivalent monospecific IgG comprising heavy chain variable region SEQ ID NO: 11 (antibody, V domains shown)", "VH": "EVQLVESGGGLVQPGGSLRLSCAASGFTFSSYAMIWVRQAPGKGLEWVSAISGSGGYTFNADSVKGRFTMSRDNSKNTLYLQMNSLRAEDTAVYYCAKRDGGYEGGAFDIWGQGTLVTVSS", "VL": "not shown", "notes": "as for B1"}}, "key": {"[1]": {"biological_target": "T1, huFAP-His recombinant protein (R&D Systems cat. #3715-SE) (human, UniProt Q12884 26-760)", "T1 construct": "Bought His-tagged recombinant protein; also called huFAP protein; human FAP (R&D, cat. No. 3715-SE)", "T1 sequence": "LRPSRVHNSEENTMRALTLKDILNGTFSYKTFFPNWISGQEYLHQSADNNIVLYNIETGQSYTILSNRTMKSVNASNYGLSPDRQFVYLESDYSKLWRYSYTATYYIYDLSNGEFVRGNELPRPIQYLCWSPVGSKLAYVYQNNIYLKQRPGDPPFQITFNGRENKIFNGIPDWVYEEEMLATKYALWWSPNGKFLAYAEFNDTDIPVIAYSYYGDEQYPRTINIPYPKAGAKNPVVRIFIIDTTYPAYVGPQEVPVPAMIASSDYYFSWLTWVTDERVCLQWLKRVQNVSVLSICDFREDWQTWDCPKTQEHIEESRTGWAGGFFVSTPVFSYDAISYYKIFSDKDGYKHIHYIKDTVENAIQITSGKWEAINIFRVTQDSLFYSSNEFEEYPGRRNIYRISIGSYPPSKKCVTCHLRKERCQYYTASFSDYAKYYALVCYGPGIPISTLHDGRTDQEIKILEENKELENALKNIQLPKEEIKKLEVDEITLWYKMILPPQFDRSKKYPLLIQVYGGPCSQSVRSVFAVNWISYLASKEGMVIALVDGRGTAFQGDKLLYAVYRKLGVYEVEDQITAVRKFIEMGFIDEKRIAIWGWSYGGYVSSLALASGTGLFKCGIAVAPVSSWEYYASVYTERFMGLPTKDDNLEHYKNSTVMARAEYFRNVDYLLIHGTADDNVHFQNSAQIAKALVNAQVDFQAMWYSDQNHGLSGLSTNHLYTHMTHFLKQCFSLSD", "assay": "competition ELISA, huFAP-His coated, IgG at 0.05 ug/ml; competitor sibrotuzumab analog Fab", "experimental": "ELISA was used to investigate the competitive binding of the human anti-FAP antibody panel with Fab fragments generated from the sibrotuzumab analog to huFAP-His protein (R&D Systems cat. #3715-SE).\nThe huFAP-His protein was coated (0.5 ug/ml, 50 μl/well) on two 96-wells ELISA plates (Certified Nunc-Immuno Maxisorp F96, Greiner Bio-One, cat. #655061). The plates were sealed (EASYseal, Greiner, cat. #676001) and incubated overnight at 4° ° C. The plates were washed with PBS/0.05% Tween 20 (PBS, Gibco, cat. #10010-015) (Tween 20, Merck, cat. #8.22184.0500) using the ELISA plate washer (BioTek 405 TS). Afterwards, the plates were emptied. Fab fragments of sibrotuzumab analog (25 ug/ml) were incubated on one plate for 30 min at RT, whereas the second plate was incubated with 300 μl/well PBS/2% BSA block buffer (BSA, Sigma, cat. #A3294-500 g) for 1 hour at RT. Afterwards, the plates were emptied. Antibodies from the human anti-FAP panel (0.05 ug/ml, 50 μl/well) were added, plates were covered with a EASYseal, and incubated for one hour at RT. The plates were washed three times with wash buffer using the ELISA washer and emptied. […] The plates were then washed three times with wash buffer using the ELISA washer and emptied. BD OptEIATMB Substrate Reagent Set (BD, cat. #555214) was then added to the wells (50 μl/well) and developed for maximal 10 min. Afterwards, 1 M H2SO4 (50 μl/well) was added to the wells to stop the staining reaction (color changes from blue to yellow). The plates were then measured using an ELISA plate reader (BioTek ELx808)."}, "[2]": {"biological_target": "human CD26 (huCD26) expressed on 293FF cells (human, UniProt P27487 1-766)", "sequence (P27487 whole entry)": "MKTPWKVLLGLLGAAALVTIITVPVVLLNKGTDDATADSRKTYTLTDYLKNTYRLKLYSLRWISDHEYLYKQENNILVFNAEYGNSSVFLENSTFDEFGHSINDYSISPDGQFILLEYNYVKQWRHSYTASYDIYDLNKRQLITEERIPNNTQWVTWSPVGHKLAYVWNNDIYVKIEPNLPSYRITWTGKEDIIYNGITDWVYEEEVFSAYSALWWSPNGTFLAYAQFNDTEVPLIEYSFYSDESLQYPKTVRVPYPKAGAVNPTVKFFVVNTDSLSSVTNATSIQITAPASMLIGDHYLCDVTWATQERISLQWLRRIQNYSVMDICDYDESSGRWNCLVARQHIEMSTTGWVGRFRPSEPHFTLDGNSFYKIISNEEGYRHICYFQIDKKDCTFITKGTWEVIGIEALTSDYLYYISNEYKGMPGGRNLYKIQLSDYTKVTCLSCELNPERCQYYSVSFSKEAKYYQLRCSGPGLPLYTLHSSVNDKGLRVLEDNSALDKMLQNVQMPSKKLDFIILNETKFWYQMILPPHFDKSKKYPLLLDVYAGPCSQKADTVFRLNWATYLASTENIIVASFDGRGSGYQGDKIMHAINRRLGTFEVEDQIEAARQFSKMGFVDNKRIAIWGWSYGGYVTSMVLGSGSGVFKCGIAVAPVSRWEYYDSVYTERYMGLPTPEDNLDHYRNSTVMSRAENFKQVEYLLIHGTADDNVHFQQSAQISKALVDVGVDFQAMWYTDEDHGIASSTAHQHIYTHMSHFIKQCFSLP", "assay": "FACS, 293FF cells transiently transfected with huCD26", "experimental": "The binding of all test and control antibodies to the cells was tested at a single concentration of 2.5 ug/ml. Goat-anti-human IgG F(ab)2-PE (Invitrogen, H10104) was used as secondary antibody (1:100 in FACS buffer). Ab0625 was used at 10 ug/ml and its binding was detected using Ab0250 (Becton Dickinson, 550767) (1:100 in FACS buffer). The FACS buffer containing PBS (Gibco, cat. #10010-015), 0.5% BSA (Thermo Scientific, cat. #37525), and 2 mM EDTA (Invitrogen, cat. #15575-020) was kept ice cold throughout the assay.\nThe target cells were harvested, counted, and centrifuged for 5 min at 300 g at 4 °C. Cells were then resuspended in FACS buffer at a concentration of 1×10⁶ cells/ml and transferred (200,000 cells/well) to a U-bottom 96-well FACS plate (BD, cat. #353910). Cells were then centrifuged for 3 min at 300 g at 4° C. and supernatant was discarded. 50 μl of primary antibody solutions were added to the cells, mixed, and incubated for 30 min at 2-8° C. in the dark. Cells were washed by adding 150 μl FACS buffer and centrifuged for 3 min at 300 g at 4° C. Supernatant was discarded, and cells were washed again by adding 200 μl FACS buffer to the plate. Cells were then centrifuged for 3 min at 300 g at 4° C. and afterwards the supernatant was discarded. 50 μl of secondary antibody solutions were added to the cells, mixed, and incubated for 30 min at 2-8° C. in the dark. Cells were then washed by adding 150 μl FACS buffer to the plate and centrifuged for 3 min at 300 g at 4° ° C. Supernatant was discarded and cells were washed again by adding 200 μl FACS buffer to the plate and centrifuged for 3 min at 300 g at 4° C. Supernatant was discarded and cells were fixated by adding 100 μl/well ice-cold Fixation buffer (2% formaldehyde solution in PBS, Sigma-Aldrich, cat. #47608-250ML-F). Cells were incubated for 15 min on ice in the dark. Afterwards, 100 μl ice-cold PBS was added to the cells and cells were centrifuged for 3 at 300 g at 4° C. Supernatant was discarded and cells were resuspended in 120 μl FACS buffer."}}, "data": [{"binder": "B1", "values": [{"measurement": "binding result", "setting": "[1]", "result": "binds"}, {"measurement": "binding result", "setting": "[2]", "result": "no binding (tested: 2.5 ug/ml)"}]}, {"binder": "B2", "values": [{"measurement": "binding result", "setting": "[1]", "result": "binds"}, {"measurement": "binding result", "setting": "[2]", "result": "no binding (tested: 2.5 ug/ml)"}]}, {"binder": "B3", "values": [{"measurement": "binding result", "setting": "[2]", "result": "no binding (tested: 2.5 ug/ml)"}]}, {"binder": "B4", "values": [{"measurement": "binding result", "setting": "[1]", "result": "binds"}, {"measurement": "binding result", "setting": "[2]", "result": "no binding (tested: 2.5 ug/ml)"}]}]}
